Experimental data: PMC3695229 (2013)
* marks the point of attachment. Biotin = O=C1N[C@H]2[C@H](CS[C@H]2CCCCC(=O)*)N1

T1: TGF-β2 (Homo sapiens, UniProt P61812)
T1 chain: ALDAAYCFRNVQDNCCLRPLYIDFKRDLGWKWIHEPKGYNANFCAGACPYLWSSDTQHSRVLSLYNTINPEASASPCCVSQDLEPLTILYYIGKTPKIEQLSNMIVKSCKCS


Target: T1, TGF-β2
Test: SPR

First: MIWTMMQNKKTFTKP [P1-mZP ZP-C peptide]
Second: Biotin-DATMIWTMMQNKKTFTK-NH2 [P4-mZP 732-748]
The Kd of the first is 24-fold lower: 8 nM for the first, about 190 nM for the second.

In the case of Biotin-DASIIWAMMQNKKTFTK-NH2 [P5-hZP 734-750], the Kd is reported as about 350 nM.
